Patent publication US20220332804A1 (CSL INNOVATION, published 2022)

What was measured:
Experiment in all cases: SPR, KD relative to WT C2;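 note: biacore SPR at 37 °C, anti-C2 mAbs captured via immobilised goat anti-human IgG, C2 alanine or serine surface mutants as analytes, 1:1 model fitted, double-referenced sensograms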
human C2 K485A = molecular target: T1, human C2 K485A (human, UniProt P06681 21-752)
T1 sequence: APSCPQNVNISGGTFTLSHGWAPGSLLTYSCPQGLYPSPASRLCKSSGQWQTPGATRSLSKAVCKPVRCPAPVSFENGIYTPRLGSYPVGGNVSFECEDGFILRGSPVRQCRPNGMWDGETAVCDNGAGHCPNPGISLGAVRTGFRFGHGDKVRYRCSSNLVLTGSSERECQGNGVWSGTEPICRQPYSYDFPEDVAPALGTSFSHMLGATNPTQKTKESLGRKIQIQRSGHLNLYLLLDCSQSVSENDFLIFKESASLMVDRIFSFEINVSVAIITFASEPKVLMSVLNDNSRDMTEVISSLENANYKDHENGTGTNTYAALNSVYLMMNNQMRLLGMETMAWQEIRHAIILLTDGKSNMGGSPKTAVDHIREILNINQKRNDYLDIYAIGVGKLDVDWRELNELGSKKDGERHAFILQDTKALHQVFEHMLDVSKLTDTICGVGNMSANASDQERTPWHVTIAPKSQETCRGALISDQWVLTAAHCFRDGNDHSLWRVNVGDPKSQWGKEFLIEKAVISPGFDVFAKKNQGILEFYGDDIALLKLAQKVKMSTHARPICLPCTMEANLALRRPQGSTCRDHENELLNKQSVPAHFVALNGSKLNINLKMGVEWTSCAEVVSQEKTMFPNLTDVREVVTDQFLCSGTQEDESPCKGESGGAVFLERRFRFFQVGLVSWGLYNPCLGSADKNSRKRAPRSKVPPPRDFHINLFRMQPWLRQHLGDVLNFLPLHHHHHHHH

human C2 H446A = molecular target: T2, human C2 H446A (human, UniProt P06681 21-752)
T2 sequence: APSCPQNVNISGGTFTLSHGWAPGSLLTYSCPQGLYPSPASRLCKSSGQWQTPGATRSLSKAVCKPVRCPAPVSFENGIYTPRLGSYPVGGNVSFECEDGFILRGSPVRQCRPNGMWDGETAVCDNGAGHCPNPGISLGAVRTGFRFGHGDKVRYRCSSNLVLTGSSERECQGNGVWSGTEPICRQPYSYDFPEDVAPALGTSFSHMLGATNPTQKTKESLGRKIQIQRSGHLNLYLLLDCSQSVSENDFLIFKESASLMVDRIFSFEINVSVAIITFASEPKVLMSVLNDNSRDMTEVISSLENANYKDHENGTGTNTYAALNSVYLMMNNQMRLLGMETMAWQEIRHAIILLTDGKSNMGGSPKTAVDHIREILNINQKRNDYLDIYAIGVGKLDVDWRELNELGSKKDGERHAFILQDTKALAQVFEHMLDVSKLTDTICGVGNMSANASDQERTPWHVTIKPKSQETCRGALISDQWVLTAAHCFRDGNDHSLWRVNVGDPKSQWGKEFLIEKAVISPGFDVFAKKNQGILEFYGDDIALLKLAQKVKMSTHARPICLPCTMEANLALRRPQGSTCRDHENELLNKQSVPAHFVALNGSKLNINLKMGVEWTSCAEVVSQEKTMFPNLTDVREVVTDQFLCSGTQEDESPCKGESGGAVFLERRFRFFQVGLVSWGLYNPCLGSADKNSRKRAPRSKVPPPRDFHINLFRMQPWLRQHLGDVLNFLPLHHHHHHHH

human C2 A470S = molecular target: T3, human C2 A470S (human, UniProt P06681 21-752)
T3 sequence: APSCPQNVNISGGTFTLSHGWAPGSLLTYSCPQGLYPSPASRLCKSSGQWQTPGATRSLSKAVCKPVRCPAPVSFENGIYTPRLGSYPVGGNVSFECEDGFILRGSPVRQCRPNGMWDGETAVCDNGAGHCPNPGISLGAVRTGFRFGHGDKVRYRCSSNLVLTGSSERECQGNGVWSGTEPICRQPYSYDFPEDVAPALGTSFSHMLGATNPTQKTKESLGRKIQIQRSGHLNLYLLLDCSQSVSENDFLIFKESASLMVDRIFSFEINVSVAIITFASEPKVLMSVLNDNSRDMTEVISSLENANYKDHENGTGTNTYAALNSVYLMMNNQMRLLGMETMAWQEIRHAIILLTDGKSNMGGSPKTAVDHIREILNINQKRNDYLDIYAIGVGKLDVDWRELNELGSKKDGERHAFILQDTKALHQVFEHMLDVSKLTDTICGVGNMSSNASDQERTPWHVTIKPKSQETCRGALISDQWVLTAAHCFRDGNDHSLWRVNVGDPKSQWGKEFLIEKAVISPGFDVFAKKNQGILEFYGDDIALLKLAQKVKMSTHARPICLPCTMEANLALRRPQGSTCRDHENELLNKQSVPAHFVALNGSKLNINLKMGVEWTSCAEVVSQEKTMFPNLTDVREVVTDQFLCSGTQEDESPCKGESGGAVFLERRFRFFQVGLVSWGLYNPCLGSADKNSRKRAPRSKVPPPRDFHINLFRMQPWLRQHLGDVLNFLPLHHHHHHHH

human C2 D269A = molecular target: T4, human C2 D269A (human, UniProt P06681 21-752)
T4 sequence: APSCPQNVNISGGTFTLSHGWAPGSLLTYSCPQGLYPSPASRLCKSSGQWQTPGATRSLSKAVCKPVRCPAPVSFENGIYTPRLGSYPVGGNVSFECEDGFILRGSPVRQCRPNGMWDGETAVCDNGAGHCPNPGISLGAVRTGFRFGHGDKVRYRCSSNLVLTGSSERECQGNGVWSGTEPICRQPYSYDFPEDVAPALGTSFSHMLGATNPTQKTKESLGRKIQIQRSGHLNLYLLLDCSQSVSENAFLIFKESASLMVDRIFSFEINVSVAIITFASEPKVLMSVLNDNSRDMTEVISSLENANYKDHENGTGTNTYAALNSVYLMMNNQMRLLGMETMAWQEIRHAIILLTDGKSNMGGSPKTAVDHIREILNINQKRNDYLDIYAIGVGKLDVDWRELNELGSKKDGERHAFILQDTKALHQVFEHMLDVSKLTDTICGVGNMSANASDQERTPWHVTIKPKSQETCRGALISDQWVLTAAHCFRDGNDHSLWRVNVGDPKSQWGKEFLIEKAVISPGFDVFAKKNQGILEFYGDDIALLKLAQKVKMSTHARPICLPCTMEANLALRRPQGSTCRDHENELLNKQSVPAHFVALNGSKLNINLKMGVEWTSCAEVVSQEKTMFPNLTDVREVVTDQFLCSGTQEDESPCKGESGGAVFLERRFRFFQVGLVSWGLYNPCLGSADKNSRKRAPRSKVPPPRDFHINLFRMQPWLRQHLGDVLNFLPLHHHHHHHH

B1: RF16-226 (antibody, human IgG4 S228P, lambda)
heavy: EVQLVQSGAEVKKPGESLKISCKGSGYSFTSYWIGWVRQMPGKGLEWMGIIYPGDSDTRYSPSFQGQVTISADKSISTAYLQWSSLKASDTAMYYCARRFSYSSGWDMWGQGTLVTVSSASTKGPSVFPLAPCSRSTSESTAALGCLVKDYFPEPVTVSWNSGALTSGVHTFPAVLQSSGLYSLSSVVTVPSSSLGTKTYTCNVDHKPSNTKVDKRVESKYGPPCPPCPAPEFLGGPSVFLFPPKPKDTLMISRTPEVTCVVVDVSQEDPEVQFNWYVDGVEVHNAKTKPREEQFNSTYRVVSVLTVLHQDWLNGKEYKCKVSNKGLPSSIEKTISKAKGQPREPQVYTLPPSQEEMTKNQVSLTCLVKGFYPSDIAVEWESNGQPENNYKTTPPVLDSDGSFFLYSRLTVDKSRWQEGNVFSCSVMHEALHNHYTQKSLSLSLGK
light: SYELTQPPSVSVSPGQTARITCSGDALTSKYVAWYQQKSGLAPLLVIYEDTRRPSGIPAKFSGSSSGSVATLTISGAHGDDEADYYCYSTDASGHQRVFGGGTKLTVLSQPKAAPSVTLFPPSSEELQANKATLVCLISDFYPGAVTVAWKADGSPVKAGVETTKPSKQSNNKYAASSYLSLTPEQWKSHRSYSCQVTHEGSTVEKTVAPTECS
notes: pH-dependent anti-C2 antibody from a phage display library; also called WT
Work on B1 yielded a Fold diff (human C2 K485A) of 1 fold, a Fold diff (human C2 H446A) of 2 fold and a Fold diff (human C2 A470S) of 1 fold. For the same binder, the Fold diff (human C2 D269A) was 1 fold.
